Experimental data: patent US20250027068

B1: PRT-88 (protein)
chain: MANQEIRYSEVTPYHVTSVWTKGVTPPAKFTQGEDVFHAPYVANQGWYDITKTFNGKDDLLCGAATAGNMLHWWFDQNKEKIEAYLKKHPEKQKIMFGDQELLDVRKVINTKGDQTNSELFNYFRDKAFPGLSARRLGVMPDLVLDMFINGYYLNVYKTQTTDVNRTYQEKDRRGGIFDAVFTRGDQSKLLTSRHDFKEKNLKEISDLIKKELTEGKALGLSHTYANVRINHVINLWGADFDSNGNLKAIYVTDSDSNASIGMKKYFVGVNSAGKVAISAKEIKEDNIGAQVLGLFTLSTGQDIWNQTN
B2: PRT-91 (protein)
chain: MANQEIRYSEETPYHITSVWTKGVTPPAKFTQGEDVFHAPYVANQGWYDITKTFNGKDDLLCGAATAGNMLHWWFDQNKEKIEAYLKKHPEKQKIMFGDQELLDVRKVINTKDDQTNSELFNYFRDKAFPNLSARRLGVMPDLVLDMFINGYYLNVGKTQTTDVNRTYQEKDKRGGIFDAVFTRGDQSKLLTSRHDFKEKNLKEISDLIKQELTEGKALGLSHTYANVRINHVINLWGADFDSNGNLKAIYVTDSDSNASIGMKKYFVGVNSAGKVAISAKEIEEDNIGAQVLGLFTLSTGQDIWNQTN
B3: PRT-90 (protein)
chain: MANQEIRYSEETPYHVTSVWTKGVTPPAKFTQGEDVFHAPYVANQGWYDITKTFNGKDDLLCGAATAGNMLHWWFDQNKEKIEAYLKKHPEKQKIMFGDQELLDVRKVINTKDDQTNSELFNYFRDKAFPGLSARRLGVMPDLVLDMFINGYYLNVYKTQTTDVNRTYQEKDRRGGIFDAVFTRGDQSKLLTSRHDFKEKTLKEISDLIKKELTEGKALGLSHTYANVRINHVINLWGADFDSNGNLKAIYVTDSDSNASIGMKKYFVGVNSAGKVAISAKEIKEDNIGAQVLGLFTLSTGQDIWNQTN
B4: PRT-95 (protein)
chain: MANQEIRYSEVTPYHITSVWTKGVTPPAKFTQGEDVFHAPYVANQGWYDITKTFNGKDDLLCGAATAGNMLHWWFDQNKEKIEAYLKKHPDKQKIMFGDQELLDVRKVINTKGDQTNSELFNYFRDKAFPNLSARRIGVMPDLVLDMFINGYYLNVGKTQTTDVNRTYQEKDKRGGIFDAVFTRGDQSKLLTSRHDFKEKNLKEISDLIKQELTEGKALGLSHTYANVRINHVINLWGADFDSNGNLKAIYVTDSDSNASIGMKKYFVGVNSAGKVAISAKEIEEDNIGAQVLGLFTLSTGQDSWNQTN
B5: PRT-99 (protein)
chain: MANQEIRYSEVTPYHVTSVWTKGVTPPAKFTQGEDVFHAPYVANQGWYDITKTFNGKDDLLCGAATAGNMLHWWFDQNKEKIEAYLKKHPDKQKIMFGDQELLDVRKVINTKGDQTNSELFNYFRDKAFPGLSARRIGVMPDLVLDMFINGYYLNVYKTQTTDVNRTYQEKDRRGGIFDAVFTRGDQSKLLTSRHDFKEKNLKEISDLIKKELTEGKALGLSHTYANVRINHVINLWGADFDSNGNLKAIYVTDSDSNASIGMKKYFVGVNSAGKVAISAKEIKEDNIGAQVLGLFTLSTGQDIWNQTN
B6: PRT-93 (protein)
chain: MANQEIRYSEVTPYHVTSVWTKGVTPPAKFTQGEDVFHAPYVANQGWYDITKTFNGKDDLLCGAATAGNMLHWWFDQNKEKIEAYLKKHPDKQKIMFGDQELLDVRKVINTKDDQTNSELFNYFRDKAFPGLSARRIGVMPDLVLDMFINGYYLNVYKTQTTDVNRTYQEKDRRGGIFDAVFTRGDQSKLLTSRHDFKEKNLKEISDLIKKELTEGKALGLSHTYANVRINHVINLWGADFDSNGNLKAIYVTDSDSNASIGMKKYFVGVNSAGKVAISAKEIKEDNIGAQVLGLFTLSTGQDSWNQTN
B7: PRT-101 (protein)
chain: MANQEIRYSEVTPYHVTSVWTKGVTPPAKFTQGEDVFHAPYVANQGWYDITKTFNGKDDLLCGAATAGNMLHWWFDQNKEKIEAYLKKHPDKQKIMFGDQELLDVRKVINTKGDQTNSELFNYFRDKAFPGLSARRIGVMPDLVLDMFINGYYLNVYKTQTTDVNRTYQEKDKRGGIFDAVFTRGDQSKLLTSRHDFKEKNLKEISDLIKKELTEGKALGLSHTYANVRINHVINLWGADFDSNGNLKAIYVTDSDSNASIGMKKYFVGVNSAGKVAISAKEIKEDNIGAQVLGLFTLSTGQDSWNQTN
B8: PRT-96 (protein)
chain: MANQEIRYSEVTPYTVTSVWTKGVTPPADFTQGEDVFHAPYVANQGWYDITKTFNGKDDLLCGAATAGNMLHWWFDQNKEKIEAYLKKHPDKQKIMFGDQELLDVRKAINTKGDQTNSELFNYFRDKAFPGLSARRIGVMPDLVLDMFINGYYLNVYKTQTTDVNRTYQEKDRRGGIFDAVFTRGDQSKLLTSRHDFKEKNLKEISDLIKKELTEGKALGLSHTYANVRINHVINLWGADFDSEGNLKAIYVTDSDSNASIGMKKYFVGVNSAGKVAISAKEIKEDNIGAQVLGLFTLSTGQDSWNQTN
B9: PRT-100 (protein)
chain: MANQEIRYSEVTPYHVTSVWTKGVTPPAKFTQGEDVFHAPYVANQGWYDITKTFNGKDDLLCGAATAGNMLHWWFDQNKEKIEAYLKKHPDKQKIMFGDQELLDVRKVINTKGDQTNSELFNYFRDKAFPNLSARRIGVMPDLVLDMFINGYYLNVYKTQTTDVNRTYQEKDRRGGIFDAVFTRGDQSKLLTSRHDFKEKNLKEISDLIKKELTEGKALGLSHTYANVRINHVINLWGADFDSNGNLKAIYVTDSDSNASIGMKKYFVGVNSAGKVAISAKEIKEDNIGAQVLGLFTLSTGQDSWNQTN
B10: PRT-92 (protein)
chain: MANQEIRYSEVTPYTITSVWTKGVTPPADFTQGEDVFHAPYVANQGWYDITKTFNGKDDLLCGAATAGNMLHWWFDQNKEKIEAYLKKHPEKQKIMFGDQELLDVRKAINTKDDQTNSELFNYFRDKAFPNLSARRLGVMPDLVLDMFINGYYLNVYKTQTTDVNRTYQEKDKRGGIFDAVFTRGDQSKLLTSRHDFKEKNLKEISDLIKQELTEGKALGLSHTYANVRINHVINLWGADFDSEGNLKAIYVTDSDSNASIGMKKYFVGVNSAGKVAISAKEIKEDNIGAQVLGLFTLSTGQDIWNQTN
B11: PRT-94 (protein)
chain: MANQEIRYSEETPYHVTSVWTKGVTPPAKFTQGEDVFHAPYVANQGWYDITKTFNGKDDLLCGAATAGNMLHWWFDQNKEKIEAYLKKHPDKQKIMFGDQELLDVRKVINTKGDQTNSELFNYFRDKAFPGLSARRIGVMPDLVLDMFINGYYLNVYKTQTTDVNRTYQEKDRRGGIFDAVFTRGDQSKLLTSRHDFKEKTLKEISDLIKKELTEGKALGLSHTYANVRINHVINLWGADFDSNGNLKAIYVTDSDSNASIGMKKYFVGVNSAGKVAISAKEIKEDNIGAQVLGLFTLSTGQDSWNQTN
B12: PRT-89 (protein)
chain: MANQEIRYSEVTPYHVTSVWTKGVTPPAKFTQGEDVFHAPYVANQGWYDITKTFNGKDDLLCGAATAGNMLHWWFDQNKEKIEAYLKKHPEKQKIMFGDQELLDVRKVINTKDDQTNSELFNYFRDKAFPGLSARRLGVMPDLVLDMFINGYYLNVYKTQTTDVNRTYQEKDRRGGIFDAVFTRGDQSKLLTSRHDFKEKNLKEISDLIKKELTEGKALGLSHTYANVRINHVINLWGADFDSNGNLKAIYVTDSDSNASIGMKKYFVGVNSAGKVAISAKEIKEDNIGAQVLGLFTLSTGQDIWNQTN
B13: PRT-97 (protein)
chain: MANQEIRYSEVTPYHVTSVWTKGVTPPAKFTQGEDVFHAPYVANQGWYDITKTFNGKDDLLCGAATAGNMLHWWFDQNKEKIEAYLKKHPEKQKIMFGDQELLDVRKVINTKGDQTNSELFNYFRDKAFPGLSARRIGVMPDLVLDMFINGYYLNVYKTQTTDVNRTYQEKDRRGGIFDAVFTRGDQSKLLTSRHDFKEKNLKEISDLIKKELTEGKALGLSHTYANVRINHVINLWGADFDSNGNLKAIYVTDSDSNASIGMKKYFVGVNSAGKVAISAKEIKEDNIGAQVLGLFTLSTGQDSWNQTN
B14: PRT-98 (protein)
chain: MANQEIRYSEVTPYHVTSVWTKGVTPPAKFTQGEDVFHAPYVANQGWYDITKTFNGKDDLLCGAATAGNMLHWWFDQNKEKIEAYLKKHPDKQKIMFGDQELLDVRKVINTKGDQTNSELFNYFRDKAFPGLSARRLGVMPDLVLDMFINGYYLNVYKTQTTDVNRTYQEKDRRGGIFDAVFTRGDQSKLLTSRHDFKEKNLKEISDLIKKELTEGKALGLSHTYANVRINHVINLWGADFDSNGNLKAIYVTDSDSNASIGMKKYFVGVNSAGKVAISAKEIKEDNIGAQVLGLFTLSTGQDSWNQTN

Biological target: pooled human IgG (human IgG1,2,3 and 4)

Protein | Enzyme Activity Endpoint Assay: Fab′2 [ng/µL] | Enzyme Activity Endpoint Assay: Fc [ng/µL] | Enzyme Activity Endpoint Assay: IgG [ng/µL] | Enzyme Activity Endpoint Assay: scIgG [ng/µL]
B1 | 48 | 110 | 25 | 0
B2 | 40 | 102 | 16 | 9
B3 | 44 | 106 | 21 | 0
B4 | 242 | 118 | 102 | 0
B5 | 489 | 152 | 0 | 0
B6 | 38 | 91 | 11 | 0
B7 | 655 | 204 | 0 | 0
B8 | 482 | 156 | 0 | 0
B9 | 513 | 178 | 0 | 0
B10 | 40 | 104 | 8 | 6
B11 | 547 | 120 | 0 | 0
B12 | 45 | 89 | 34 | 0
B13 | 524 | 185 | 0 | 0
B14 | 592 | 180 | 0 | 0
